Kd and EC50 data for five molecules are collected here from patent US20230077531A1 (Sanofi, published 2023).

Residue numbers refer to the chain shown, from its start. Numbers in names are those of the source.

The target in assay [1] is T1, huFcγRIIIa_F158 His protein (human, UniProt P08637 17-208). In words: SPR, His-receptor captured, assay 1 n=3.
Assay [2] addresses T2, huFcγRIIIa_V158 His protein (human, UniProt P08637 17-208).
T2 construct: also called His-tagged recombinant human FcγRIIIa-V158
In words: SPR, His-receptor captured, assay 1 n=3. Background: In SPR one partner is held on a chip, and binding of the other changes the refractive index at the surface.

The target in assay [3] is T3, FcγRIIIa F158 on HEK293T cells (human, UniProt P08637 17-254).
T3 construct: whole, on cells; also called HEK293T-FcγRIIIa F158
The assay can be described thus: FACS on HEK293T-FcγRIIIa cells, assay 1 n=3; bracketed value under the F158 cell.

Assay [4] has as its target T3, FcγRIIIa F158 on HEK293T cells. The assay can be described thus: FACS on HEK293T-FcγRIIIa cells, assay 2 n=1.
For assay [5], the target named is T4, FcγRIIIa V158 on HEK293T cells (human, UniProt P08637 17-254).
T4 construct: whole, on cells
The assay can be described thus: FACS on HEK293T-FcγRIIIa cells, assay 2 n=1.

Assay [6] deals with T4, FcγRIIIa V158 on HEK293T cells. The assay can be described thus: FACS on HEK293T-FcγRIIIa cells, assay 1 n=3; bracketed value under the V158 cell.
Assay [7] addresses T3, FcγRIIIa F158 on HEK293T cells. In words: FACS on HEK293T-FcγRIIIa cells, assay 1 n=3.
In assay [8] the target is T4, FcγRIIIa V158 on HEK293T cells. The assay can be described thus: FACS on HEK293T-FcγRIIIa cells, assay 1 n=3.
Assay [9] deals with T5, human FcRn (human, UniProt P55899 24-297).
T5 construct: also called huFcRn; recombinant human FcRn
In words: SPR pH 6.0, huFcRn captured, assay 2 n=3.

Assay [10] addresses T1, huFcγRIIIa_F158 His protein. In words: SPR, His-receptor captured, assay 2 n=3.
Assay [11] addresses T2, huFcγRIIIa_V158 His protein. The assay can be described thus: SPR, His-receptor captured, assay 2 n=3.
For another assay, the target named is T6, human FcγRIIa H131 (human, UniProt P12318 34-317, limits assumed).
T6 construct: FACS implies display on cells, but the methods name no FcγRIIa cell line; also called huFcγRIIa H131
T6 sequence (looked up): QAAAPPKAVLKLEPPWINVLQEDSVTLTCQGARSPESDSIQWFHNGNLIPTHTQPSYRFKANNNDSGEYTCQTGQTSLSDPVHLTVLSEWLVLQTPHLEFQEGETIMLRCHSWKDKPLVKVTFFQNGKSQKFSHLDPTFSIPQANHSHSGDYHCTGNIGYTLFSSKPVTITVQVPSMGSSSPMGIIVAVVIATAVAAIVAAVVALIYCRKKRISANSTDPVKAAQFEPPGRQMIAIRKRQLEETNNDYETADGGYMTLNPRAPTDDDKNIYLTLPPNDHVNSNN
The assay can be described thus: FACS, assay 1 n=3.

The target in a further assay is T7, human FcγRIIa R131 (human, UniProt P12318 34-317, limits assumed).
T7 construct: FACS implies display on cells, but the methods name no FcγRIIa cell line; also called huFcγRIIa R131
T7 sequence (looked up): T6 sequence (looked up) with H134R
The assay can be described thus: FACS, assay 1 n=3. Background: A flow cytometer gives signals particle by particle.

The target in assay [12] is T5, human FcRn. In words: SPR pH 6.0, huFcRn captured, assay 1 n=3.
Assay [13] deals with T3, FcγRIIIa F158 on HEK293T cells. In words: FACS on HEK293T-FcγRIIIa cells, assay 1 n=3; cell shifted up, taken as F158.

T1 sequence (P08637 17-208 limits assumed): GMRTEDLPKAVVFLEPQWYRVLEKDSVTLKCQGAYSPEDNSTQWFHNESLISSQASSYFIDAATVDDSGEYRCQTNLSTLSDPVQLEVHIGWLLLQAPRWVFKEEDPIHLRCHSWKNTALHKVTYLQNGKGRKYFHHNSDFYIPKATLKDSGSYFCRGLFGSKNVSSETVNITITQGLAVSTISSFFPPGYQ
T2 sequence (P08637 17-208 F176V limits assumed): as the sequence (P08637 17-208 limits assumed) above, with F160V counted along it
T5 sequence (P55899 24-297): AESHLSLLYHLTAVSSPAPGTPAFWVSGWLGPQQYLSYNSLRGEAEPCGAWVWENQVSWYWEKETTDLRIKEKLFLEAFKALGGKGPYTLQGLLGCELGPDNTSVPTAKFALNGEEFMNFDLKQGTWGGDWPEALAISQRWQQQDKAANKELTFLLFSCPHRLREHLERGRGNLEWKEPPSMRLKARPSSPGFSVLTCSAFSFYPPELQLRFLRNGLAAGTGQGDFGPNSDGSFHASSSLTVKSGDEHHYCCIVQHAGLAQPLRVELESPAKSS
T3 sequence (P08637 17-254): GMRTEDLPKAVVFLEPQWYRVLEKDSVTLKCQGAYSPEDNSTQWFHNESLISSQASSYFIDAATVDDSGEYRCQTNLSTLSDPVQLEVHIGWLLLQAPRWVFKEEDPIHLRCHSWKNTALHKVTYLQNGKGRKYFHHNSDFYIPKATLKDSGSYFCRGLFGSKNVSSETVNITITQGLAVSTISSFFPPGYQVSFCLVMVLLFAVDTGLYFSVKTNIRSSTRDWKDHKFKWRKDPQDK
T4 sequence (P08637 17-254 F176V): as the sequence (P08637 17-254) above, with F160V counted along it

B1: mAb1-ADLE (antibody)
chain 1: QVQLVQSGAEVKKPGASVKVSCKASGYSFTSYGISWVRQAPGQGLEWMGWISTYKGYTQYAQNFQGRVTITTDTPATTVYMELRSLRSDDTAVYYCARVLSETGYFYYYYYGMDVWGQGTLVTVSSASTKGPSVFPLAPSSKSTSGGTAALGCLVKDYFPEPVTVSWNSGALTSGVHTFPAVLQSSGLYSLSSVVTVPSSSLGTQTYICNVNHKPSNTKVDKKVEPKSCDKTHTCPPCPAPELLAGPDVFLFPPKPKDTLMISRTPEVTCVVVDVSHEDPEVKFNWYVDGVEVHNAKTKPREEQYNSTYRVVSVLTVLHQDWLNGKEYKCKVSNKALPLPEEKTISKAKGQPREPQVYTLPPSRDELTKNQVSLTCLVKGFYPSDIAVEWESNGQPENNYKTTPPVLDSDGSFFLYSKLTVDKSRWQQGNVFSCSVMHEALHNHYTQKSLSLSPG
chain 2: QAVVTQPPSVSGAPGQRVTISCTGSSSNIGADYNVHWYQLLPGTAPKLLIYGNTNRPSGVPDRFSGSKSGTSASLAITGLQAEDEADYYCQSYDSSLSASVFGGGTKLTVLGQPKAAPSVTLFPPSSEELQANKATLVCLISDFYPGAVTVAWKADSSPVKAGVETTTPSKQSNNKYAASSYLSLTPEQWKSHRSYSCQVTHEGSTVEKTVAPTECS
As to B1, the Kd – broadly, the constant that tells how readily two partners part at equilibrium – stood at 94 nM in assay [1]; 77 nM in assay [2]; 811 nM with human FcRn [9]; 46 nM in assay [10]; 22 nM in assay [11]; 993 nM with human FcRn [12]. The EC50 (usually the midpoint of the concentration-response curve) stood at 4.37 nM in assay [3]; 7 nM in [4]; 5 nM in assay [5]; 2.71 nM in assay [6]; 4 nM in assay [7]; 3 nM in assay [8]. In addition, the results for the half-maximal effective concentration (EC50) with human FcγRIIa H131 and in the assay with human FcγRIIa R131 were 70 nM and 85 nM, respectively.

B2: mAb1-DE (antibody)
chain 1: not shown
chain 2: B1 chain 2
In the case of B2, the Kd was found to be 141 nM in assay [1]; 57 nM in assay [2]; 761 nM with human FcRn [9]; 48 nM in assay [10]; 17 nM in [11]; 996 nM with human FcRn [12]. In addition, the EC50 in [4] was determined as 18 nM; in assay [5], 4 nM; in assay [7], 11 nM; in assay [8], 2 nM; with human FcγRIIa H131, 106 nM; in the assay with human FcγRIIa R131, 198 nM.

B3: mAb1-ADLE-R292C-V302C (antibody)
chain 1: B1 chain 1 with R301C, V311C
chain 2: B1 chain 2
For the molecule B3, the Kd came out at 296 nM in [1], 258 nM in [2] and 1130 nM with human FcRn [12]. The EC50 in assay [7] stood at 25 nM; in assay [8], 12 nM; with human FcγRIIa H131, 155 nM; with human FcγRIIa R131, 144 nM.

B4: mAb1-ADE (antibody)
chain 1: B1 chain 1 with L339A
chain 2: B1 chain 2
For B4, the results for the equilibrium dissociation constant (Kd) (in [1]; in assay [2]; with human FcRn [12]) were 150 nM, 107 nM and 1040 nM, respectively. Besides, the concentration for a half-maximal effect (EC50) in assay [7] worked out at 9 nM; in [8], 3 nM; with human FcγRIIa H131, 20 nM; in the assay with human FcγRIIa R131, 20 nM.

B5: mAb1 (wt) (IgG1) (antibody)
chain 1: not shown
chain 2: B1 chain 2
With B5, the Kd in [1] is 3870 nM; in assay [2], 1620 nM; with human FcRn [9], 941 nM; in [10] it was 1330 nM; in assay [11], 386 nM; with human FcRn [12], 1210 nM. In addition, the EC50 in assay [4] came out at 744 nM; in assay [5], 244 nM; in assay [7], 1060 nM; in [8], 186 nM; in assay [13], 1060 nM; with human FcγRIIa H131, 341 nM. In the assay with human FcγRIIa R131, this molecule yielded an EC50 of 303 nM.
